In patent US20240350586A1 (TSINGHUA UNIVERSITY, published 2024):

Experiments:
[1] = molecular target: T1, HA-CCT2 (chaperonin subunit CCT2, wild type, N-terminal HA tag) (human, UniProt P78371 2-535); assay: co-IP of HA-CCT2 with T7-LC3C in HEK293T with knockdown of P62, NBR1 and TAX1BP1
T1 construct: Expressed in HEK293T or U2OS from pFUGW-HA-CCT2; CCT genes were amplified from HEK293T cDNA; also called WT CCT2; HA-CCT2 WT; not shown: N-terminal HA tag
T1 sequence: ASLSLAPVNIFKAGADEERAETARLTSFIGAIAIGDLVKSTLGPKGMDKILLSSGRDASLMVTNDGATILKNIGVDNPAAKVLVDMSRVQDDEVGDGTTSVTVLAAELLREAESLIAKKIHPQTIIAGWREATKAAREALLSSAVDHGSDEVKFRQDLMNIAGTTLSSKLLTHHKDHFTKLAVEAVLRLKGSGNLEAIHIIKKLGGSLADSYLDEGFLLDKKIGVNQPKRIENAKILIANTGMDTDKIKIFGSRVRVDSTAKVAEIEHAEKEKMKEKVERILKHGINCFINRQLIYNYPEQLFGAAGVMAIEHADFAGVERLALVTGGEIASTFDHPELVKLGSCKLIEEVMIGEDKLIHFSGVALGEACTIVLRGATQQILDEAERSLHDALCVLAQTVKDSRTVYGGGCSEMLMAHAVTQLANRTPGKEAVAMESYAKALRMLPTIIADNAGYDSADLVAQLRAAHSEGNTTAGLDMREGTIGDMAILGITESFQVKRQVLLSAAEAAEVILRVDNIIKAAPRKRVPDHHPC
Method: (§1) The data are representative of three independent experiments. [0146] […] The data are representative of three independent experiments. [0147] […] The data are representative of three independent experiments. [0148] […] The interaction of the peptides with T7-GABARAP or T7-GABARAPL1 proteins was analyzed by in vitro pull-down. The data are representative of three independent experiments. [0149] […] The data are representative of three independent experiments. [0150] […] [0151] (K) Quantification of Q103-HTT-GFP area/DAPI area (mean±SEM) as shown in [0152] (J). 48 h represents IB accumulation stage and 72 h represents clearance stage. P values are indicated (two-tailed t test, >20 views from three independent experiments). [0153] […] The data are representative of three independent experiments. [0154] […] The data are representative of three independent experiments. [0155] […] The data are representative of three independent experiments.
(§2) Co-immunoprecipitation was performed essentially as described before. In brief, 24 h after transfection, the cells were collected and lysed on ice for 30 min in co-IP buffer (50 mM Tris/HCl pH 7.4, 150 mM NaCl, 1 mM EDTA, 0.5% NP40) with protease inhibitor mixture, and the lysates were cleared by centrifugation. The resulting supernatants were incubated with indicated agarose or magnetic beads and rotated at 4° C. for 3 h. The agarose was washed five times with co-IP buffer.

HA-CCT6 = molecular target: T2, HA-CCT6 (human, UniProt P40227 2-531); assay: co-IP with T7-LC3C in HEK293T
T2 construct: Amplified from HEK293T cDNA; not shown: N-terminal HA tag
T2 sequence (P40227 2-531 limits assumed): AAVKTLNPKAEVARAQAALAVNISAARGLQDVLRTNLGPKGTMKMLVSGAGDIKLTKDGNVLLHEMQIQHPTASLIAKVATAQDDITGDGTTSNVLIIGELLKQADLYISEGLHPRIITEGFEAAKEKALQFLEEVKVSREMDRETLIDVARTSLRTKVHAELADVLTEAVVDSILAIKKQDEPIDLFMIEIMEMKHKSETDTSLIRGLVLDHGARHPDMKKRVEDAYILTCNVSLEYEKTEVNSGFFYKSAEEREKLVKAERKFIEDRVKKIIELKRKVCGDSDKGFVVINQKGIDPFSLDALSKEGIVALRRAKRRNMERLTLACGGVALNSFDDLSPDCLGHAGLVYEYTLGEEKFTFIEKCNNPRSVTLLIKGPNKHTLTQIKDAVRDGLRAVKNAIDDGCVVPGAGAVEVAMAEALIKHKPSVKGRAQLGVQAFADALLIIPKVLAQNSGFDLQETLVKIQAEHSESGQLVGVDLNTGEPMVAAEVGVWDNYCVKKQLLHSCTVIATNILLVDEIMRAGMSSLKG
Method: as §1, §2

HSPA9-HA = molecular target: T3, HSPA9-HA (Homo sapiens (Human), UniProt P38646 1-679, limits assumed); assay: co-IP with T7-LC3C in HEK293T
T3 construct: Plasmid pCMV3-HSPA9-HA (SinoBiological HG16926-CY); also called long-form of HSPA9; not shown: C-terminal HA tag
T3 sequence (P38646 whole entry): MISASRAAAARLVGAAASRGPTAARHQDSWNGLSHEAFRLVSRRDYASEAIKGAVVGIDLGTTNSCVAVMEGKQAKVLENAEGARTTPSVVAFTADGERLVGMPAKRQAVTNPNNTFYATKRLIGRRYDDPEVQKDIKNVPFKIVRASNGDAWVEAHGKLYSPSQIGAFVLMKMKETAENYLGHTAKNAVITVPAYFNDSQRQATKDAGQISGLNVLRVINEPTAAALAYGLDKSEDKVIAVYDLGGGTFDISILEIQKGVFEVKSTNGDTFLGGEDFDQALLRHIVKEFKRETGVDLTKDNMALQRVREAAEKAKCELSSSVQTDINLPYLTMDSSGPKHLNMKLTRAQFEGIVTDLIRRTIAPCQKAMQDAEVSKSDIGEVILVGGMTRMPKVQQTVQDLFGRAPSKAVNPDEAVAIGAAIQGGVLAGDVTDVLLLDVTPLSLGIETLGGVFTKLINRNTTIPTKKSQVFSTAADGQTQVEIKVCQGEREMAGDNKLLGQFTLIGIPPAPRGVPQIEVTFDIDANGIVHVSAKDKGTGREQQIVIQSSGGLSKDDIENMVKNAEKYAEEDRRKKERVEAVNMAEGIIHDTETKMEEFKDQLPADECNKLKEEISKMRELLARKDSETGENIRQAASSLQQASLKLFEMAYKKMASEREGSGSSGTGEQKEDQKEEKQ
Method: as §1, §2

HA-CCT5 = molecular target: T4, HA-CCT5 (human, UniProt P48643 2-541); assay: co-IP with T7-LC3C in HEK293T
T4 construct: not shown: N-terminal HA tag
T4 sequence (P48643 2-541 limits assumed): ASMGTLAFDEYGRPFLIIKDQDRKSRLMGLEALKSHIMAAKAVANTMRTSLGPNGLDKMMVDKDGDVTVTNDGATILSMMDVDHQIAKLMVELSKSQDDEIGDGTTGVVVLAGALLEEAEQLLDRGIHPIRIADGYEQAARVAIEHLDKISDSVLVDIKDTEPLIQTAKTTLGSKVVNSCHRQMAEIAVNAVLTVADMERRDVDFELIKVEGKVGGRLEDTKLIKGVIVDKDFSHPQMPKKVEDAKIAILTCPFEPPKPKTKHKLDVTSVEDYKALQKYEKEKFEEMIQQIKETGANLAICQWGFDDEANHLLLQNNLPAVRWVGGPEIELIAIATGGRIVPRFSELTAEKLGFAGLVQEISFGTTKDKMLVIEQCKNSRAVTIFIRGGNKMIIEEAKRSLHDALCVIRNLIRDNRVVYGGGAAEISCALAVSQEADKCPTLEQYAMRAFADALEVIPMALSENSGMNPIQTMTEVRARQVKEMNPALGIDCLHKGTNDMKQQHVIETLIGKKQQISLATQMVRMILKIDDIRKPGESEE
Method: as §1, §2

HA-CCT3 = molecular target: T5, HA-CCT3 (human, UniProt P49368 1-545); assay: co-IP with T7-LC3C in HEK293T
T5 construct: Amplified from HEK293T cDNA; not shown: N-terminal HA tag
T5 sequence: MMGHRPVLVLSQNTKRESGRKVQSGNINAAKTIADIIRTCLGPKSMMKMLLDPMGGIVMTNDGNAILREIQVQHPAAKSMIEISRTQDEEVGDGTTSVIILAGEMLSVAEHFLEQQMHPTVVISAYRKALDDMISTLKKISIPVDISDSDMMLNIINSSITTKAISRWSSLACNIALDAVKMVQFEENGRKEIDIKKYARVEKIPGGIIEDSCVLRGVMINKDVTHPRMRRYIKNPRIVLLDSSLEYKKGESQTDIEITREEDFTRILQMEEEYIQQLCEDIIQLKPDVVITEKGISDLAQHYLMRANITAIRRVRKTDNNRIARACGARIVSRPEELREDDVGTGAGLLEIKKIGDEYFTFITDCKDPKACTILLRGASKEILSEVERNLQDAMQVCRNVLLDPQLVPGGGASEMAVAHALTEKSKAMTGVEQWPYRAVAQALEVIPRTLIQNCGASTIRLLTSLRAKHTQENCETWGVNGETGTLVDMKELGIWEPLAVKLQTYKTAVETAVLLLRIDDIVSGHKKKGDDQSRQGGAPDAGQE
Method: as §1, §2

B1: T7-LC3C (expressed in cells) (other, UniProt Q9BXW4 1-126, looked up)
chain: MPPPQKIPSVRPFKQRKSLAIRQEEVAGIRAKFPNKIPVVVERYPRETFLPPLDKTKFLVPQELTMTQFLSIIRSRMVLRATEAFYLLVNNKSLVSMSATMAEIYRDYKDEDGFVYMTYASQETFG
notes: Expressed from pCDNA3-T7-LC3C; not shown: T7 tag
Q: Does B1 bind [1]?
A: binds

Q: Does B1 bind (HA-CCT6)?
A: binds

Q: Does B1 bind (HSPA9-HA)?
A: binds

Q: Does B1 bind (HA-CCT5)?
A: no binding

Q: Does B1 bind (HA-CCT3)?
A: binds
